Measured values taken from patent US6797811.

Tests used:
[1] = target: T1, FLAG-tagged 88C receptor (human, UniProt P51681 1-352); test: cell-based or functional assay
T1 sequence: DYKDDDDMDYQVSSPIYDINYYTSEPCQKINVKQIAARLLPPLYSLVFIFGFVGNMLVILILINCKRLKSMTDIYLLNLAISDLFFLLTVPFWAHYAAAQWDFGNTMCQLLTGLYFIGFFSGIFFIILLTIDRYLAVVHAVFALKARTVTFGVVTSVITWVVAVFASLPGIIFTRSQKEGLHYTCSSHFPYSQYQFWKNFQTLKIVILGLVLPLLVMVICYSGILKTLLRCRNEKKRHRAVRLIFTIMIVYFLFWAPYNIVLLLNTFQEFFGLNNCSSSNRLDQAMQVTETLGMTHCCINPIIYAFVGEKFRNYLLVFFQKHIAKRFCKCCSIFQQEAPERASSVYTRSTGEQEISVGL

[2] = target: T1, FLAG-tagged 88C receptor; test: equilibrium binding of 125I-MIP-1β to HEK-293 cells expressing FLAG-tagged 88C, Scatchard analysis
Text: (§1) Another assay for receptor interaction with chemokines was a modification of the binding assay described by Ernst et al. *J. Immunol.* 152:3541–3549 (1994). MIP-1β as labeled using the Bolton and Hunter reagent (di-iodide, NEN, Wilmington, Del.), according to the manufacturer's instructions. Unconjugated iodide was separated from labeled protein by elution using a PD-10 column (Pharmacia) equilibrated with PBS and BSA (1% w/v). The specific activity was typically 2200 Ci/mmole. Equilibrium binding was performed by adding ^125I-labeled ligand with or without a 100-fold excess of unlabeled ligand, to 5×10^5 HEK-293 cells transfected with 88C tagged with the FLAG epitope in polypropylene tubes in a total volume of 300 µl (50 mM HEPES pH 7.4, 1 mM CaCl_2, MgCl_2, 0.5% BSA) and incubating for 90 minutes at 27° C. with shaking at 150 rpm. […] After washing, the filters were removed and bound ligand was quantitated by counting gamma emissions. Ligand binding by competition with unlabeled ligand was determined by incubation of 5×10^5 transfected cells (as above) with 1.5 nM of radiolabeled ligand and the indicated concentrations of unlabeled ligand. The samples were collected, washed and counted as above. The data was analyzed using the curve-fitting program Prism (GraphPad Inc., San Diego, Calif.) and the iterative non-linear regression program, LIGAND (PM220).

[3] = target: T1, FLAG-tagged 88C receptor; test: competition of unlabelled ligand with 1.5 nM 125I-MIP-1β on HEK-293 cells expressing FLAG-tagged 88C
Text: as §1

EC50 of inositol phosphate formation (phospholipase C assay), COS-7 cells co-transfected with Gqi5 [1]: 6 nM
Kd [2]: 1.6 nM
IC50 [3]: 7.4 nM
B1: MIP-1β (ligand, UniProt P13236 24-92, looked up)
chain: APMGSDPPTACCFSYTARKLPRNFVVDYYETSSLCSQPAVVFQTKRSKQVCADPSESWVQEYVYDLELN
notes: also called MIP-1beta; radiolabeled MIP-1β
